Target: hT1R2-hT1R3, human sweetness receptor (human) (UniProt Q8TE23)
Test: cell-based or functional assay

Chain of UniProt Q8TE23 (Q8TE23 20-839, chain 1 of 2): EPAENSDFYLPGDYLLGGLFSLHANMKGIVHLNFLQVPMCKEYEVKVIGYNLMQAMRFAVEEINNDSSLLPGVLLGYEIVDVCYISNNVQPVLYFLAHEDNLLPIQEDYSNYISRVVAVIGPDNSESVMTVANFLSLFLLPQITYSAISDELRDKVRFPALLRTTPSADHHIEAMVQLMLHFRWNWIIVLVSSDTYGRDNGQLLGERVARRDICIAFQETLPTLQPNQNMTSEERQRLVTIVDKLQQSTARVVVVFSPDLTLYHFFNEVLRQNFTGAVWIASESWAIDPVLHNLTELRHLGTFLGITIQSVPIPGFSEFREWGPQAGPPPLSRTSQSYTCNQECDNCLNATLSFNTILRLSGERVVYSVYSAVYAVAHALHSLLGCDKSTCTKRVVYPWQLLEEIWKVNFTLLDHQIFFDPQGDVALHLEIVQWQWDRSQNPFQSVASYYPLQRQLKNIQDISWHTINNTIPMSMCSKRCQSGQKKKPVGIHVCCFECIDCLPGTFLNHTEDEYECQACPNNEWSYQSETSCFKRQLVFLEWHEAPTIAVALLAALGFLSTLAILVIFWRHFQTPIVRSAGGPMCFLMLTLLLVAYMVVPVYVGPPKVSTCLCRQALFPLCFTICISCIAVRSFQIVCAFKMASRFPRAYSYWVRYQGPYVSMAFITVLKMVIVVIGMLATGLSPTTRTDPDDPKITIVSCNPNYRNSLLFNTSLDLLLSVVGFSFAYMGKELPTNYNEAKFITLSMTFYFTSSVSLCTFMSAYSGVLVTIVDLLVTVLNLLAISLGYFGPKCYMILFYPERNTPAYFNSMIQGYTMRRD
Chain of UniProt Q8TE23 (Q7RTX0 21-852, chain 2 of 2, further chain): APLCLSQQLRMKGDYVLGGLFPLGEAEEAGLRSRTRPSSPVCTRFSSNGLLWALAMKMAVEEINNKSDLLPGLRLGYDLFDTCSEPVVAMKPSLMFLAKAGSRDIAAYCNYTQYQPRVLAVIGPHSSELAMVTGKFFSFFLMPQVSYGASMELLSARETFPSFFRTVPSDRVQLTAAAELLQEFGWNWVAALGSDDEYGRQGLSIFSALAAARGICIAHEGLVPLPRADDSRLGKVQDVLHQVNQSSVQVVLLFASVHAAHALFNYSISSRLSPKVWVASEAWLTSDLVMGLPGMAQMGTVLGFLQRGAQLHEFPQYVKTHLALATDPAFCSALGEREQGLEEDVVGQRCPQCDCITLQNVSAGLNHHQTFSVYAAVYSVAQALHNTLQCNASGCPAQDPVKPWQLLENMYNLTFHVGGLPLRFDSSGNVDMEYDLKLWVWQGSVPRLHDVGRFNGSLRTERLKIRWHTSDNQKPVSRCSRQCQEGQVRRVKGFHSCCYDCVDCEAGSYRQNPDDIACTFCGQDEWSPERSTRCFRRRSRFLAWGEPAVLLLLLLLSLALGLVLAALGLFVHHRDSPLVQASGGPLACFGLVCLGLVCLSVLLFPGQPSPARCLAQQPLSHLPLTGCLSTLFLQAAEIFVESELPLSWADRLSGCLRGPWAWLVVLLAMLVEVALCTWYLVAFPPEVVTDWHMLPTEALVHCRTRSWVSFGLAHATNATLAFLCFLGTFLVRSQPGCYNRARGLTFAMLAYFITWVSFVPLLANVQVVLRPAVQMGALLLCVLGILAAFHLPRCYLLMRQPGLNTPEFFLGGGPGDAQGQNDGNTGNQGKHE

A response of the cells around pH 7, against the response in the acidic region (fraction of the response) of 0.5 and a response of the cells around pH 8, against the response in the acidic region (fraction of the response) of 0.1 were found for “neoculin (heterodimer of polypeptide NAS and polypeptide NBS) (from UniProt Q6F495 23-135; P19667 23-136) (ligand)” in this work.

Source: patent publication US20100040754A1
